Several values for one entry are separate records, joined by “and”; a condition that tells them apart may be missing. Identical values can stand only once.
Assays:
Western blot of lysates = molecular target: the molecule itself; test: Western blot of lysates
Western blot = molecular target: the molecule itself; test: Western blot

| Protein | stoichiometry N (Western blot of lysates) | stoichiometry N (Western blot) |
| --- | --- | --- |
| GRASP65 (natural protein) not shown | 2 and 4 | – |
| Rab6a GTPase (natural protein, human (endogenous in LNCaP), UniProt P20340 1-208, looked up) MSTGGDFGNPLRKFKLVFLGEQSVGKTSLITRFMYDSFDNTYQATIGIDFLSKTMYLEDRTVRLQLWDTAGQERFRSLIPSYIRDSTVAVVVYDITNVNSFQQTTKWIDDVRTERGSDVIIMLVGNKTDLADKRQVSIEEGERKAKELNVMFIETSAKAGYNVKQLFRRVAAALPGMESTQDRSREDMIDIKLEKPQEQPVSEGGCSC | – | 2 |

— publication doi:10.1101/296517 (bioRxiv, 2018)
